From PMC9482650, “Quantitative fragmentomics allow affinity mapping of interactomes” (Nature Communications, 2022)

What was measured:
Experiment in all cases: holdup assay
Design in all cases: key: below the threshold = too weak to quantify, mostly under pKd 3.1 to 4
[1] = molecular target: FRMPD2_2, Q68DX3
[2] = molecular target: T1, APBA1_2, Q02410
T1 sequence (Q02410 742-832, limits assumed, looked up): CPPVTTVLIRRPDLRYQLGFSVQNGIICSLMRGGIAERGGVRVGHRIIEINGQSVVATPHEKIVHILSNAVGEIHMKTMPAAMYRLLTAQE

[3] = molecular target: T2, PDZD7_3, Q9H5P4
T2 sequence (Q9H5P4 857-944, limits assumed, looked up): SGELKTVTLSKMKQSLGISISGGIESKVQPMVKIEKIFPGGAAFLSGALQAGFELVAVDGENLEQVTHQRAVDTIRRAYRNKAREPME

[4] = molecular target: TJP1_2, Q07157
[5] = molecular target: T3, SHANK1, Q9Y566
T3 sequence (Q9Y566 658-767, limits assumed, looked up): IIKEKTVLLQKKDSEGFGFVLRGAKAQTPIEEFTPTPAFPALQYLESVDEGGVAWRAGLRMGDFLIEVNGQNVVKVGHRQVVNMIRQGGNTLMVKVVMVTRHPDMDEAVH

[6] = molecular target: T4, GRIP1_4, Q9Y3R0
T4 sequence (Q9Y3R0 467-571, limits assumed, looked up): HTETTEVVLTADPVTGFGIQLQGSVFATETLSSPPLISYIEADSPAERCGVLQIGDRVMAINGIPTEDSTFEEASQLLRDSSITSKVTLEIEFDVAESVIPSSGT

[7] = molecular target: T5, GRIP1_3, Q9Y3R0
T5 sequence (Q9Y3R0 247-346, limits assumed, looked up): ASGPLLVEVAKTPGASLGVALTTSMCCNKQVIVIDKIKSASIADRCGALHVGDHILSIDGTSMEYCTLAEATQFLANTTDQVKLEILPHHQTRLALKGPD

[8] = molecular target: Inadl_6, Q8NI35
[9] = molecular target: FRMPD2_3, Q68DX3
[10] = molecular target: T6, APBA3_1, O96018
T6 sequence (O96018 389-490, limits assumed, looked up): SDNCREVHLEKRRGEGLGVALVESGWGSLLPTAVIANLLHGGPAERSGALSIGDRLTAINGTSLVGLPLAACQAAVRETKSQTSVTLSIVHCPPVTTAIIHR

[11] = molecular target: DLG1_2, Q12959
[12] = molecular target: T7, DFNB31_1, Q9P202
T7 sequence (Q9P202 135-233, limits assumed, looked up): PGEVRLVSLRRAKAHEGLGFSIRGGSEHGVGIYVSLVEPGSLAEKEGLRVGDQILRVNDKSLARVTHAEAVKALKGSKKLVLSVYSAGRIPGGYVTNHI

[13] = molecular target: NHERF2_2, Q15599
[14] = molecular target: T8, PTPN13_1, Q12923
T8 sequence (Q12923 1088-1188, limits assumed, looked up): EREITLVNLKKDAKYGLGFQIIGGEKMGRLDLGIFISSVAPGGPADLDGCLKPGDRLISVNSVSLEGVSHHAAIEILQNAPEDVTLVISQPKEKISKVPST

[15] = molecular target: T9, PARD3B_1, Q8TEW8
T9 sequence (Q8TEW8 196-299, limits assumed, looked up): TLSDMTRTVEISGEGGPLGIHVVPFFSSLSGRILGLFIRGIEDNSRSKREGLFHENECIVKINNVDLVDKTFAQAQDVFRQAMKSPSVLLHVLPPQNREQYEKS

[16] = molecular target: T10, MPDZ_12, O75970
T10 sequence (O75970 1857-1958, limits assumed, looked up): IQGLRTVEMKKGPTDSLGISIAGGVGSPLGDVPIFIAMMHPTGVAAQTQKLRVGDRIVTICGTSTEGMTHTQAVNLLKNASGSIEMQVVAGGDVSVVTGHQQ

[17] = molecular target: Inadl_4, Q8NI35
[18] = molecular target: T11, DLG3_2, Q92796
T11 sequence (Q92796 221-321, limits assumed, looked up): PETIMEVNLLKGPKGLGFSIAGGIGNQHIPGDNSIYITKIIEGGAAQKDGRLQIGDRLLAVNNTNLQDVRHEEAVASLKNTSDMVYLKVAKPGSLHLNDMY

[19] = molecular target: T12, MPP6, Q9NZW5
T12 sequence (Q9NZW5 125-219, limits assumed, looked up): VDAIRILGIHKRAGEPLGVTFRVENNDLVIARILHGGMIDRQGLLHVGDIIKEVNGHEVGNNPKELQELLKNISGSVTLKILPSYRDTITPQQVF

[20] = molecular target: LAP2, Q96RT1
[21] = molecular target: GIPC2, Q8TF65
[22] = molecular target: MAGI2_4, Q86UL8
[23] = molecular target: T13, PCLO, Q9Y6V0
T13 sequence (Q9Y6V0 4491-4600, limits assumed, looked up): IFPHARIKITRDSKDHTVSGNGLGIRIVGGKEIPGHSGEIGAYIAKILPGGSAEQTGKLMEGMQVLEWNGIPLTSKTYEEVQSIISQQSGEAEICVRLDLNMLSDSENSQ

[24] = molecular target: CASK, O14936
[25] = plain residues with an end cap or a label only (N-terminal biotin on a linker: gsgsgs; C-terminal amide)
[26] = plain residues with an end cap or a label only (N-terminal biotin on a linker: ttds)
[27] = plain residues with an end cap or a label only (N-terminal biotin on a linker: ahx)
[28] = plain residues with an end cap or a label only (N-terminal biotin on a linker: none)

Chain of CASK, O14936 (O14936 487-570): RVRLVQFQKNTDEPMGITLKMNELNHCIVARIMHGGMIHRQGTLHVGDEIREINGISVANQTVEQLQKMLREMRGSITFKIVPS
Chain of MAGI2_4, Q86UL8 (Q86UL8 772-865): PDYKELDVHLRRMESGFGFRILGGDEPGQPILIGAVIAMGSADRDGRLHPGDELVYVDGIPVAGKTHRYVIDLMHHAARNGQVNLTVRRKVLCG
Chain of FRMPD2_3, Q68DX3 (Q68DX3 1073-1166): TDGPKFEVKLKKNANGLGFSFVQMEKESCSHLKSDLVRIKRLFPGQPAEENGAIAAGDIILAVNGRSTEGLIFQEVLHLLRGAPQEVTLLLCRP
Chain of GIPC2, Q8TF65 (Q8TF65 112-203): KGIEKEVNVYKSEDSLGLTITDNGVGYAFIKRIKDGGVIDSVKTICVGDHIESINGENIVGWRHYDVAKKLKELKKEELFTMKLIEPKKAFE
Chain of NHERF2_2, Q15599 (Q15599 142-238): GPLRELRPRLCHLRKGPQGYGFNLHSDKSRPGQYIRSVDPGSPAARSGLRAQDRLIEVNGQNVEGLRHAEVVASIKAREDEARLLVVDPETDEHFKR
Chain of DLG1_2, Q12959 (Q12959 314-412): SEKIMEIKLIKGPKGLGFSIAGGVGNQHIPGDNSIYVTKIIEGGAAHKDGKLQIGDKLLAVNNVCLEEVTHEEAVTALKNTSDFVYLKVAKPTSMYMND
Chain of TJP1_2, Q07157 (Q07157 181-274): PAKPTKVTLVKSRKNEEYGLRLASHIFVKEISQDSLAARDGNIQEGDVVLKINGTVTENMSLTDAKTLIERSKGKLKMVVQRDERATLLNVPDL
Chain of Inadl_4, Q8NI35 (Q8NI35 547-651): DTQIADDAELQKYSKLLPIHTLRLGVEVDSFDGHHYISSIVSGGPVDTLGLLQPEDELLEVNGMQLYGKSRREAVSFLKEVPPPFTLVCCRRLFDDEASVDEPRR
Chain of LAP2, Q96RT1 (Q96RT1 other isoform, or with tags, fused parts or gaps): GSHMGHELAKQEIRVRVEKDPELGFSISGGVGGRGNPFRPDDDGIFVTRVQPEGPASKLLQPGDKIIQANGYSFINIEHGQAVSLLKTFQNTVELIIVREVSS
Chain of FRMPD2_2, Q68DX3 (Q68DX3 944-1038): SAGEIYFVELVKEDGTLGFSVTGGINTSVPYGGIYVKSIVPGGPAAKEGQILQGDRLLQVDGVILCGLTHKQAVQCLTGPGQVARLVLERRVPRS
Chain of Inadl_6, Q8NI35 (Q8NI35 1058-1167): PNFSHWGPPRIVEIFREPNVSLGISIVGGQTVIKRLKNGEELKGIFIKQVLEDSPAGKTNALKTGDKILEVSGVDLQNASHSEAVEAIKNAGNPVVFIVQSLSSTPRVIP

B1: DFNB31_int, Q9P202 (peptide)
chain: VSVDDVRSTSQGLSSY
pKd [1, 25]: below the threshold
pKd [2, 25]: below the threshold
pKd [3, 25]: 3.8
pKd [4, 25]: below the threshold
pKd [5, 25]: below the threshold
pKd [6, 25]: below the threshold
pKd [7, 25]: below the threshold
pKd [8, 25]: below the threshold
pKd [9, 25]: below the threshold
pKd [10, 25]: below the threshold
pKd [11, 25]: below the threshold
pKd [12, 25]: below the threshold
pKd [13, 25]: below the threshold
pKd [14, 25]: below the threshold
pKd [15, 25]: below the threshold
pKd [16, 25]: below the threshold
pKd [17, 25]: below the threshold
pKd [18, 25]: 4.12
pKd [19, 25]: 3.65
pKd [20, 25]: 3.7
pKd [21, 25]: below the threshold
pKd [22, 25]: below the threshold
pKd [23, 25]: below the threshold
pKd [24, 25]: below the threshold

B2: OTULIN, Q96BN8 (peptide)
chain: PVRVCEETSL
pKd [1, 26]: 3.51
pKd [2, 26]: 3.95
pKd [3, 26]: 4.41
pKd [4, 26]: below the threshold
pKd [5, 26]: 5.14
pKd [6, 26]: below the threshold
pKd [7, 26]: below the threshold
pKd [8, 26]: 4.4
pKd [9, 26]: below the threshold
pKd [10, 26]: 3.51
pKd [11, 26]: 4.56
pKd [12, 26]: 4.42
pKd [13, 26]: 5.21
pKd [14, 26]: below the threshold
pKd [15, 26]: 4.09
pKd [16, 26]: below the threshold
pKd [17, 26]: below the threshold
pKd [18, 26]: 4.35
pKd [19, 26]: below the threshold
pKd [20, 26]: 4.18
pKd [21, 26]: 4.02
pKd [22, 26]: below the threshold
pKd [23, 26]: below the threshold
pKd [24, 26]: below the threshold

B3: HPV73-E6, Q82005 (peptide)
chain: SGSRPSATVV
pKd [1, 26]: below the threshold
pKd [2, 26]: 4.02
pKd [3, 26]: 4.7
pKd [4, 26]: below the threshold
pKd [5, 26]: below the threshold
pKd [6, 26]: below the threshold
pKd [7, 26]: below the threshold
pKd [8, 26]: below the threshold
pKd [9, 26]: below the threshold
pKd [10, 26]: below the threshold
pKd [11, 26]: 4.3
pKd [12, 26]: below the threshold
pKd [13, 26]: below the threshold
pKd [14, 26]: 3.61
pKd [15, 26]: below the threshold
pKd [16, 26]: below the threshold
pKd [17, 26]: below the threshold
pKd [18, 26]: 4.11
pKd [19, 26]: 3.57
pKd [20, 26]: below the threshold
pKd [21, 26]: 3.62
pKd [22, 26]: 4.49
pKd [23, 26]: below the threshold
pKd [24, 26]: below the threshold

B4: LNX2, Q8N448 (peptide)
chain: TVICWPGSLV
pKd [1, 27]: 3.85
pKd [2, 27]: 4.39
pKd [3, 27]: 4.5
pKd [4, 27]: below the threshold
pKd [5, 27]: 3.48
pKd [6, 27]: below the threshold
pKd [7, 27]: below the threshold
pKd [8, 27]: 3.55
pKd [9, 27]: below the threshold
pKd [10, 27]: below the threshold
pKd [11, 27]: 4.27
pKd [12, 27]: below the threshold
pKd [13, 27]: below the threshold
pKd [14, 27]: below the threshold
pKd [15, 27]: 3.99
pKd [16, 27]: 3.84
pKd [17, 27]: below the threshold
pKd [18, 27]: 4.07
pKd [19, 27]: below the threshold
pKd [20, 27]: 3.86
pKd [21, 27]: below the threshold
pKd [22, 27]: 5.22
pKd [23, 27]: below the threshold
pKd [24, 27]: below the threshold

B5: ACVR2A, P27037 (peptide)
chain: VDFPPKESSL
pKd [1, 26]: below the threshold
pKd [2, 26]: 3.33
pKd [3, 26]: 3.61
pKd [4, 26]: below the threshold
pKd [5, 26]: below the threshold
pKd [6, 26]: below the threshold
pKd [7, 26]: below the threshold
pKd [8, 26]: below the threshold
pKd [9, 26]: below the threshold
pKd [10, 26]: below the threshold
pKd [11, 26]: 4.24
pKd [12, 26]: below the threshold
pKd [13, 26]: 3.77
pKd [14, 26]: below the threshold
pKd [15, 26]: below the threshold
pKd [16, 26]: below the threshold
pKd [17, 26]: below the threshold
pKd [18, 26]: below the threshold
pKd [19, 26]: below the threshold
pKd [20, 26]: below the threshold
pKd [21, 26]: below the threshold
pKd [22, 26]: below the threshold
pKd [23, 26]: below the threshold
pKd [24, 26]: below the threshold

B6: SARS-CoV2-E, P0DTC4 (peptide)
chain: NLNSSRVPDLLV
pKd [1, 28]: below the threshold
pKd [2, 28]: below the threshold
pKd [3, 28]: below the threshold
pKd [4, 28]: 5.52
pKd [5, 28]: below the threshold
pKd [6, 28]: below the threshold
pKd [7, 28]: below the threshold
pKd [8, 28]: below the threshold
pKd [9, 28]: below the threshold
pKd [10, 28]: below the threshold
pKd [11, 28]: below the threshold
pKd [12, 28]: below the threshold
pKd [13, 28]: below the threshold
pKd [14, 28]: below the threshold
pKd [15, 28]: below the threshold
pKd [16, 28]: below the threshold
pKd [17, 28]: below the threshold
pKd [18, 28]: below the threshold
pKd [19, 28]: below the threshold
pKd [20, 28]: below the threshold
pKd [21, 28]: below the threshold
pKd [22, 28]: 3.65
pKd [23, 28]: below the threshold
pKd [24, 28]: below the threshold
